Source: publication PMC4784663

Target: Chicken Best1 residues 1–405 (GgBest1) (chicken)
Assay: crystal structure; GgBest1–Fab complex, hanging-drop vapour diffusion; P2_1 form in CYMAL-6 or CYMAL-6-NG, 0–60 mM NaCl, 50 mM sodium acetate pH 4.0, 5% PEG 4000, 20% glycerol; C2 form in DM, 120 mM NaCl, 50 mM Tris pH 8.5, 8.5% PEG 4000, 20% glycerol; sample supplemented with 50 mM GABA

In the case of “Chicken Best1 residues 1–405 (GgBest1) (domain or fragment)”, the stoichiometry N was 5.
